We go through 41 sequences from the nanobody polyreactivity screen of Harvey et al. (2022).

This data set in a line: yeast display, Sf9 membrane polyspecificity reagent, FACS + sequencing; frameworks hold sequencing errors. In short, it runs like this: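 After 36–48 hours of galactose induction, yeast (Saccharomyces cerevisiae BJ5465) displaying a synthetic nanobody library were stained at 4 °C for 1 hour with 10% biotinylated, detergent-solubilized Sf9 membrane reagent. Streptavidin microbeads enriched the stained cells before FACS sorting into low and high (top ~1%) gates on anti-HA and streptavidin fluorescence. Each clone's polyreactivity label reflects its gate of origin.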
As to “QVQLVESGGGLVQAGGSLRLRCAASGRIFGRYAMGWYRQAPGKERELVARITYIAGNTYYADSVKGRFTISRDNSKNTVYLQMKSLKPEDTAVYSCNADSYYIQYDYWGQGTQVTVSS”, the “polyreactivity (PSR sort gate)” value is “high polyreactivity”.
For the sequence “QVQLVESGGGLVQAGGSLRLRCAASGRLFQSNAMGWYIQAPGKERELVSGINSDTSTYYADSVKGRFTISRDNAKNTVYLKMNSLKPDDTAVYYCNAGWDTYYWQSTEFDYWGQGTQVTVSS”, the “polyreactivity (PSR sort gate)” value was “low polyreactivity”.
Regarding “QVQLVESGGGLVQAGGSLRLRCAASGRTFAFYGMGWYRQAPGNARELVAAITKRGGSTYYADSVKGRFTISLDNAKYTVYLQMNSLKPEDTAVYYCAATGVKGRIAVWYGYWGQGTQVTVSS”, the “polyreactivity (PSR sort gate)” value is given as “high polyreactivity”.
“QVQLVESGGGLVQAGGSLRLRCAASGRTFSGYAMGWYRQSPGKERELVAAITASGSSTYYADSVKGRFTSSRDNAKNTVDLQMNSLKPEDTAVYYCAADYTGDWADGPHSLREYDYWGQGTQVTVSS”: the “polyreactivity (PSR sort gate)” value was “low polyreactivity”.
The entry for “QVQLVESGGGLVQAGGSLRLRCAASGRTFSSNAMGWSRQAPGKERQLVASITWSGRTYYADSVKGRFTNSRDNAKNTVYLQMNSRNPEDHAVYYCATVYRQESYFYTLYYWGQGTQVTVSS” is “high polyreactivity”; for “QVQLVESGGGLVQAGGSLRLRCAASGRTFVGTAMGWYRQAPGKERELVAAISWDGGSPYYADSVKGRFTISRDNAKNTVYLQMNSLKPEDTAVYYCAALYRPSAFRGYGYWGQGTQVTVSS” it is “high polyreactivity”.
Take “QVQLVESGGGLVQAGGSLRLRCAASGRTFWKNAMGWYRQEPRKECELVAAISWGGGSTYYADSVKGRFTISRDNAKNTVYLQMNSLKPEDTAVYYCNVYYRRVLLGFYYWGQGTQVTVSS”: the “polyreactivity (PSR sort gate)” value is reported as “low polyreactivity”.
In the case of “QVQLVESGGGLVQAGGSLRLRCAASGRYAMGWYRQAPGKEREFVARITWSGGSTYYADSVKGRFTISRDNAKNTVYLQMNSLNPEDTAVYYCAKVSRRTDYYYWGQGTQVTVSS” it was “high polyreactivity”; in that of “QVQLVESGGGLVQAGGSLRLRCAASGSIFFFYAMGWYSQARGKEREFVAGITYSGGITYYADSVKGRFTISRDNAKNTDYLQMNSLKPEDTAVYFCDYGGGVYQYGYWGQGTQVTVSS”, “low polyreactivity”; in that of “QVQLVESGGGLVQAGGSLRLRCAASGSIFISYAMGWYRQAPGKERELVAAISIRGTRTFYADSVKGRFTISRDNAKNTVYLQMNSLKPEDTAVYYCAARAPWPKWGYYYWGQGTQVTVSS”, “high polyreactivity”.
In the case of “QVQLVESGGGLVQAGGSLRLRCAASGSIFKRYAMGWYRQAPGKERELVAAISWGGGRTYYADSVKGRFTISRDTAKNTVYLQMNSLKPEDTAVYYCNRVGSYGQSNSYQGGDYWGQGTQVTVSS” it was “high polyreactivity”; in that of “QVQLVESGGGLVQAGGSLRLRCAASGSIFKTYAMGWYRQAPRKERELVAAITTSGGRTYYADSVKGRFTISRDNAKYTVYLQMNSLKPEDTAVYYCNADLFPGYVSYPEYDYWGQGTQVTVSS”, “low polyreactivity”; in that of “QVQLVESGGGLVQAGGSLRLRCAASGSIFNSYAMGWSRQAPGKERELVAAISIRGTRTYYADSVKGRFTISRDNAKNTVYLQMNSLKPEDTAVYYCAADASYTEGMDYWGQGTQVTVSS”, “high polyreactivity”.
The entry for “QVQLVESGGGLVQAGGSLRLRCAASGSIFSRNAMGWYRQAPGKERELVAAISGRGGSTYYADSVKGRFTISRDNAMNTVYLQMNRLKPEDTAVYYCAKAVIYRLSEAMDYWGQGSQVTVSS” is “high polyreactivity”; for “QVQLVESGGGLVQAGGSLRLRCAASGSILPWYAMGWYRHAPGKERELVAVITSDGGTNYADSVKGRFTISRDNSKNTVYLQMNSLKPEDTAVYYCAADRFSQSGFDSWGQGTQVTVSS” it is “low polyreactivity”; for “QVQLVESGGGLVQAGGSLRLRCAASGSNFDTYAMGWYRQAPGKERELDAAINSGGGTNYADSVKGRFTISRDNANNTVYLQMNSLKPEDTAVYYCATDIRREAGGGDFDYWGQATQVTVSS” it is “low polyreactivity”.
For “QVQLVESGGGLVQAGGSLRLRCAASGSNFKHNDMGWSRPAPGKERELVAAISRSGGSTYYADSVKGRFTISRDNGKNTVYLPMNSLKPEDTAVYYCNAGRRTGRYGYWGQGTQVTVSS”, the “polyreactivity (PSR sort gate)” value is reported as “high polyreactivity”.
In the case of “QVQLVESGGGLVQAGGSLRLRCAASGSTCWFSAMGWSRQATGTERELVATITIGARTYADSVKGRCTISRDNPKTTVYVQMNSLKPEETAVYYCAARRRRLEYDYGRNDYWGQGTQVTVTS” it was “low polyreactivity”; in that of “QVQLVESGGGLVQAGGSLRLRCAASGSTFASYAMGGYRQAPGKERELVAAITRSGGSTYYADSVKGRFTISRVKAKNTVYLQMNSLKPEDTAVYYCARRAVYGIFDYWGQGTQVTVSS”, “high polyreactivity”.
Take “QVQLVESGGGLVQAGGSLRLRCAASGSTFDSYAMGWYRQAPGKERELVAAITTTGGSTFYADSVKGRFTISRDYAKNTVYLQMNSLKPEDTAVYYCAADDGWQEFEYWGQGTQVTVSS”: the “polyreactivity (PSR sort gate)” value is given as “low polyreactivity”.
Consider “QVQLVESGGGLVQAGGSLRLRCAASGSTFGGYAMGWYRQAPGKERELVAAISRRGGRTYYADSVKGRFRISRDNAKNTVYLQRNSLKPEDTAVYYSAADWSYVRYYYWGQGTQVTVSS”, for which the “polyreactivity (PSR sort gate)” value is “high polyreactivity”.
In the case of “QVQLVESGGGLVQAGGSLRLRCAASGSTFGKNAMGWYRQAPGKERELVAAISKNGGSTYYADSVKGRFTISRDNAKNTVYILMNSLKPEDTAVYYCNTRRKNFVKSSQVEYWGQGTQVTVSS” it was “high polyreactivity”; in that of “QVQLVESGGGLVQAGGSLRLRCAASGSTFGLYTMGWYSQAPGKERELVASISIVGSTYYADSVKGLFTSSRDNAKNTVYFQMNSLKPVDTAVYYCAADSEIIYTVRNRTYPWIMDYWGQGTQVTVSS”, “low polyreactivity”; in that of “QVQLVESGGGLVQAGGSLRLRCAASGSTFTSYTMGWYRQAPGKERELVARITRGGGSTYYADSVKGRFTISRDNAKNTVYLQMNSLKPEDTAVYYCAKQVVGRAYYSWGQGTQVTVSS”, “low polyreactivity”.
The entry for “QVQLVESGGGLVQAGGSLRLRCAASGSTFYGNTMGWNRQAPGKERELVAAITWTGGRTYYADSVKGRFTISRDNAKNTVYLQMNSLIPEDTAVYYCARGASFYQKFYYWGQGTQVTVSS” is “high polyreactivity”.
With “QVQLVESGGGLVQAGGSLRLRCAASGSTFYGYVMGWYRQAPGQERELVAAITNRAGSTYYADSVKARFTISRDNAKNTVYVQMNSLKPEDTAVYYCNARRPAKSRYRHVYWGQVTQVTVSS”, the “polyreactivity (PSR sort gate)” value is given as “high polyreactivity”.
Turning to “QVQLVESGGGLVQAGGSLRLRCAASGYNIQHYAMGWYRQAPGKERELVAAITSGGSTTYADSVKGRFTISRDNAKNTVYLQMNSLKPEDTAVYYCKALRRARYTRKGYEYWGQGTQVTVSS”, the “polyreactivity (PSR sort gate)” value was “high polyreactivity”.
In the case of “QVQLVESGGGLVQAGGSLRLRCAASVRTFYTYAMGWYRQAPGKERELVAAISKRGTSTYYADSVKGRFTISRDNAKNTDYFQMNSLKPQDTAVYYCAAAVYQRARYYWGQGTQVTVSS” it was “high polyreactivity”; in that of “QVQLVESGGGLVQAGGSLRLRGAASGGILVGYAMGWYRQAPGKERELVAAINYSGGSTNYADSVKGRFTISRDNAKNTVYLQMNSLKPEDTAVYYCAARSTARYGYWGQGTQVTVSS”, “low polyreactivity”.
Consider “QVQLVESGGGLVQAGGSLRLRWDASGRILWYNAMGWYRQAPGKERELVAAIRSGGRTHYADSVKGRFTISRDNAKNTVYLQMNCLKPEDTAVYYCAARSVPYPYRRNPYDYWGQGTQVTVSS”, for which the “polyreactivity (PSR sort gate)” value is on record as “high polyreactivity”.
The entry for “QVQLVESGGGLVQAGGSLRLSCAAAGRTFYSYAMGWYRQAPGKEREFVAAINWSGTSTYADSVKGRFTISRDNAKNTVYLQMTSLKPEDTAVYYCAADLPAEYYHWGQGTQVTVSS” is “high polyreactivity”; for “QVQLVESGGGLVQAGGSLRLSCAAAGRTVPRYTMGWYRQAPGKEMELVAAISRGGSTNYAYSVKGLFTISRDNAKNTVYLVMNSLKPEDTAVYYCNADYWYDWKSYDYWGEGTQVTVSS” it is “high polyreactivity”; for “QVQLVESGGGLVQAGGSLRLSCAAAGSTFHRYVMGWYRQAPGQERELVAVINSTGGSTYYADSVKGRFTISRDNAKNTVYLQMKCLKPEDTAVYYCARVTRRGPGYSTLFSRYDYWGQGTQVTVSS” it is “low polyreactivity”.
As for “QVQLVESGGGLVQAGGSLRLSCAAARIFVYNAMGWYRQAPGKERELVATITSSGGITYYADSVKGRFTISRDNAKNTVYLQMKSLKPEDTAVYYCNKVRRYYYRTHNVYWGQGTQVTVSS”, the “polyreactivity (PSR sort gate)” value is “high polyreactivity”.
Regarding “QVQLVESGGGLVQAGGSLRLSCAAARYAMGWYRQAPGKERELVAAISKSGGSTYYADSVKGRFTISRDNAKNTVYLQMNSLKPEDTAVYYCAARGHAGRGEYYYWGQGTQVTVSS”, the “polyreactivity (PSR sort gate)” value was “high polyreactivity”.
In the case of “QVQLVESGGGLVQAGGSLRLSCAACGFTFWDYAMGWYSQAPGKERELVAAISDNDGSTDYADSVKGRFTISRDNAKNTVYLQMNSLKPEDSAVYYCNAEIELPSKEGDYWGQGTQVTVSS” it was “low polyreactivity”.
In the case of “QVQLVESGGGLVQAGGSLRLSCAACGIIFEYNAMGWYRQAPGKVRELVASIDSGGSTNYADSVKGRFTISRDNAKNTVYLQKNSLKPEDTAVYYCNADDTTVSPWYYYYQSYYWGQGTQVTVSS” it was “low polyreactivity”; in that of “QVQLVESGGGLVQAGGSLRLSCAACGRTFQHYAMGWYRQAPGKERELVAAISSGGRTYYADSVKGRFTISRDNAKNTVYLLMNSLKPEDTAVYYCAARYHGRDPRQIRYGYWGQGTQVNVSS”, “high polyreactivity”.
With “QVQLVESGGGLVQAGGSLRLSCAACGRTFWSYAMGWYLQAPGKERELVAAINSGGSTDYADSVKGRFTISRDNAKNTVYLQMNSLKPEDTAVYYCAADTWYGFDWGQGTQVTVSS”, the “polyreactivity (PSR sort gate)” value is on record as “high polyreactivity”.
In the case of “QVQLVESGGGLVQAGGSLRLSCAACGSIFYYYAMGWYRQAPGKERELVAAITVSGGRTYYADSVKGRFTISRDNAKNSVYLQMNSLKPEDTAVYYCAARRGRYSYYYWGQGTQVTVSS” it was “high polyreactivity”; in that of “QVQLVESGGGLVQAGGSLRLSCAACGSTFSPNAMGWYRQAPGKERELVAAISGSGASTYYADSVKGRFTISRDNAKNTVYLQMNSLKPEDTAVYYCAADKPGIFSRFDYWGQGTQVTVSS”, “low polyreactivity”.
